Test results taken from publication doi:10.1101/2025.09.26.678928.

Biological target: UhGpe1 (U. hordei)

Molecule	reporter activity in S. cerevisiae biosensor assays, percent activity
SrPit2 peptide corresponding to the U. maydis activating motif	45%
WWFGFTGSL [Pit2 core peptide (…)]	30%
